Assay results from patent US20240417485A1.

Legend:
[1] = target: human uPAR expressed on the cell surface (human) (UniProt Q03405); test: flow cytometry on A375 cells, isotype control (background)
[2] = target: human uPAR expressed on the cell surface (human) (UniProt Q03405); test: flow cytometry on 293T cells, isotype control (background)
[3] = target: human uPAR expressed on the cell surface (human) (UniProt Q03405); test: flow cytometry on 293T-uPAR cells, isotype control (background)

Chain of human uPAR expressed on the cell surface (human) (Q03405 23-305): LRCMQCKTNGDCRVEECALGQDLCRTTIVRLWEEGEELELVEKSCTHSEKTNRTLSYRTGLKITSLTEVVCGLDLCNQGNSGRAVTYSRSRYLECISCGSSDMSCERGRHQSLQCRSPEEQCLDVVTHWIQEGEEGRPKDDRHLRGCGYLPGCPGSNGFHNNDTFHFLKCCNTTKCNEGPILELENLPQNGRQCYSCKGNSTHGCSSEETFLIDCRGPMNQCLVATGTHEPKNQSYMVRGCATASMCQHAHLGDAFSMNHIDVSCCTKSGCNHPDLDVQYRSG

MFI [1]: 71.3
MFI [2]: 62
MFI [3]: 46.4
Substance: isotype antibody
